Experimental data: EP4559472A1

Biological target: Biotinylated C4b (UniProt P0C0L4)
Assay: SPR, biotinylated C4b on streptavidin chip, 1:1 steady-state affinity model

B1: C4BP(1-4) (protein)
chain: AGNCGPPPTLSFAAPMDITLTETRFKTGTTLKYTCLPGYVRSHSTQTLTCNSDGEWVYNTFCIYKRCRHPGELRNGQVEIKTDLSFGSQIEFSCSEGFFLIGSTTSRCEVQDRGVGWSHPLPQCEIVKCKPPPDIRNGRHSGEENFYAYGFSVTYSCDPRFSLLGHASISCTVENETIGVWRPSPPTCEKITCRKPDVSHGEMVSGFGPIYNYKDTIVFKCQKGFVLRGSSVIHCDADSKWNPSPPACEP
Binder B1 has a Kd of 2900 nM.
